Measurements taken from PMC5913336, “True equilibrium measurement of transcription factor-DNA binding affinities using automated polarization microscopy”.

T1: Bcd homeodomain (Drosophila melanogaster, UniProt P09081-2 77-166)
T1 sequence: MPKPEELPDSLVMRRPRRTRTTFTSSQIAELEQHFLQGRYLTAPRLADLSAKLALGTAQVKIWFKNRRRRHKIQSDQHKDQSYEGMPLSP

T2: Bicoid DBD-GST (Bcd) (UniProt P09081 83-170)
T2 sequence: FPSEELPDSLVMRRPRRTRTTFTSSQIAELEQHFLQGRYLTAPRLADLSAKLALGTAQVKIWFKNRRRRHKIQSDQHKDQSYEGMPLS

B1: Bcd consensus (dsDNA)
DNA 1: TCGACGGTAATCCCTA
DNA 2: TAGGGATTACCGTCGA
B2: Bcd oligo 5 (dsDNA)
DNA 1: TCGACTGTAATCCCTA
DNA 2: TAGGGATTACAGTCGA
B3: Bcd oligo 6 (dsDNA)
DNA 1: TCGACAGTAATCCCTA
DNA 2: TAGGGATTACTGTCGA
B4: Bcd oligo 9 (dsDNA)
DNA 1: TCGACGATAATCCCTA
DNA 2: TAGGGATTATCGTCGA
B5: Bcd oligo 10 (dsDNA)
DNA 1: TCGACGGCAATCCCTA
DNA 2: TAGGGATTGCCGTCGA
B6: Bcd oligo 11 (dsDNA)
DNA 1: TCGACGGGAATCCCTA
DNA 2: TAGGGATTCCCGTCGA
B7: Bcd oligo 12 (dsDNA)
DNA 1: TCGACGGAAATCCCTA
DNA 2: TAGGGATTTCCGTCGA
B8: Bcd oligo 13 (dsDNA)
DNA 1: TCGACGGTCATCCCTA
DNA 2: TAGGGATGACCGTCGA
B9: Bcd oligo 14 (dsDNA)
DNA 1: TCGACGGTGATCCCTA
DNA 2: TAGGGATCACCGTCGA
B10: Bcd oligo 15 (dsDNA)
DNA 1: TCGACGGTTATCCCTA
DNA 2: TAGGGATAACCGTCGA
B11: Bcd oligo 16 (dsDNA)
DNA 1: TCGACGGTACTCCCTA
DNA 2: TAGGGAGTACCGTCGA
B12: Bcd oligo 17 (dsDNA)
DNA 1: TCGACGGTAGTCCCTA
DNA 2: TAGGGACTACCGTCGA
B13: Bcd oligo 18 (dsDNA)
DNA 1: TCGACGGTATTCCCTA
DNA 2: TAGGGAATACCGTCGA
B14: Bcd oligo 1 (dsDNA)
DNA 1: TCGAGGGTAATCCCTA
DNA 2: TAGGGATTACCCTCGA
B15: Bcd oligo 19 (dsDNA)
DNA 1: TCGACGGTAACCCCTA
DNA 2: TAGGGGTTACCGTCGA
B16: Bcd oligo 20 (dsDNA)
DNA 1: TCGACGGTAAGCCCTA
DNA 2: TAGGGCTTACCGTCGA
B17: Bcd oligo 21 (dsDNA)
DNA 1: TCGACGGTAAACCCTA
DNA 2: TAGGGTTTACCGTCGA
B18: Bcd oligo 22 (dsDNA)
DNA 1: TCGACGGTAATGCCTA
DNA 2: TAGGCATTACCGTCGA
B19: Bcd oligo 23 (dsDNA)
DNA 1: TCGACGGTAATTCCTA
DNA 2: TAGGAATTACCGTCGA
B20: Bcd oligo 24 (dsDNA)
DNA 1: TCGACGGTAATACCTA
DNA 2: TAGGTATTACCGTCGA
B21: Bcd oligo 25 (dsDNA)
DNA 1: TCGACGGTAATCGCTA
DNA 2: TAGCGATTACCGTCGA
B22: Bcd oligo 26 (dsDNA)
DNA 1: TCGACGGTAATCTCTA
DNA 2: TAGAGATTACCGTCGA
B23: Bcd oligo 27 (dsDNA)
DNA 1: TCGACGGTAATCACTA
DNA 2: TAGTGATTACCGTCGA
B24: Bcd oligo 28 (dsDNA)
DNA 1: TCGACGGTAATCCGTA
DNA 2: TACGGATTACCGTCGA
B25: Bcd oligo 2 (dsDNA)
DNA 1: TCGATGGTAATCCCTA
DNA 2: TAGGGATTACCATCGA
B26: Bcd oligo 29 (dsDNA)
DNA 1: TCGACGGTAATCCTTA
DNA 2: TAAGGATTACCGTCGA
B27: Bcd oligo 30 (dsDNA)
DNA 1: TCGACGGTAATCCATA
DNA 2: TATGGATTACCGTCGA
B28: Bcd oligo 31 (dsDNA)
DNA 1: TCGACGGTAATCCCCA
DNA 2: TGGGGATTACCGTCGA
B29: Bcd oligo 32 (dsDNA)
DNA 1: TCGACGGTAATCCCGA
DNA 2: TCGGGATTACCGTCGA
B30: Bcd oligo 33 (dsDNA)
DNA 1: TCGACGGTAATCCCAA
DNA 2: TTGGGATTACCGTCGA
B31: Bcd oligo 3 (dsDNA)
DNA 1: TCGAAGGTAATCCCTA
DNA 2: TAGGGATTACCTTCGA
B32: Bcd oligo 4 (dsDNA)
DNA 1: TCGACCGTAATCCCTA
DNA 2: TAGGGATTACGGTCGA
B33: Bcd oligo 7 (dsDNA)
DNA 1: TCGACGCTAATCCCTA
DNA 2: TAGGGATTAGCGTCGA
B34: Bcd oligo 8 (dsDNA)
DNA 1: TCGACGTTAATCCCTA
DNA 2: TAGGGATTAACGTCGA
B35: Bcd EMSA 16-mer (dsDNA)
DNA 1: TCGACCGTAATCCCTA
DNA 2: TAGGGATTACGGTCGA
B36: Bcd consensus CGGTAATCCCT (dsDNA)
DNA 1: TCGACGGTAATCCCTA
DNA 2: TAGGGATTACCGTCGA
B37: Bcd competitor 8 (G3T) (dsDNA)
DNA 1: TCGACGTTAATCCCTA
DNA 2: TAGGGATTAAGGTCGA
B38: Bcd competitor 9 (G3A) (dsDNA)
DNA 1: TCGACGATAATCCCTA
DNA 2: TAGGGATTATGGTCGA
B39: Bcd competitor 10 (T4C) (dsDNA)
DNA 1: TCGACGGCAATCCCTA
DNA 2: TAGGGATTGCGGTCGA
B40: Bcd competitor 12 (T4A) (dsDNA)
DNA 1: TCGACGGAAATCCCTA
DNA 2: TAGGGATTTCGGTCGA
B41: Bcd competitor 11 (T4G) (dsDNA)
DNA 1: TCGACGGGAATCCCTA
DNA 2: TAGGGATTCCGGTCGA

tested on: Giant DBD-GST (Gt); test: competitive fluorescence anisotropy (HiP-FA); details: HiP-FA: 33 mM phosphate pH 7.0, 90 mM NaCl, 0.01% Tween 20, 0.1 mM DTT, 0.5% agarose; conventional titration and EMSA: 20 mM Tris-acetate pH 7.0, 50 nM …

Molecule	Kd [nM]
Gt consensus oligo	0.9

tested on: Ttk-F DBD-GST; test: competitive fluorescence anisotropy (HiP-FA); details: HiP-FA: 33 mM phosphate pH 7.0, 90 mM NaCl, 0.01% Tween 20, 0.1 mM DTT, 0.5% agarose; conventional titration and EMSA: 20 mM Tris-acetate pH 7.0, 50 nM …

Molecule	Kd [nM]
Ttk-F consensus oligo	48

tested on: Caudal DBD-GST (Cad); test: competitive fluorescence anisotropy (conventional titration); details: HiP-FA: 33 mM phosphate pH 7.0, 90 mM NaCl, 0.01% Tween 20, 0.1 mM DTT, 0.5% agarose; conventional titration and EMSA: 20 mM Tris-acetate pH 7.0, 50 nM …

Molecule	Kd [nM]
Cad consensus oligo	0.05

biological target: T1, Bcd homeodomain; test: FP; 33 mM phosphate pH 7.0, 90 mM NaCl, 0.01% Tween 20, 0.1 mM DTT, 0.5% agarose; room temperature; details: tags: N-GST (pGEX-6P-1, kept)

Molecule	Kd [nM]
B1	2.2
B2	6.66
B3	5.86

same assay, conditions: tags: N-GST (pGEX-6P-1, kept); printed reverse strand differs at base 6 of strand 1 (G / C); complement of the forward strand used

Molecule	Kd [nM]
B4	3.8
B5	20.6
B6	21.4
B7	12.9
B8	64.3
B9	8.98
B10	29.4
B11	146
B12	45.8
B13	128
B14	2.7
B15	94.1
B16	18.8
B17	48.8
B18	92.1
B19	27.2

Molecule	Kd [nM]
B20	47.8
B21	14.1
B22	7.79
B23	12.7
B24	3.67
B25	2.66
B26	4.03
B27	5.18
B28	3.8
B29	5.08
B30	4.71
B31	3.76
B32	5.02
B33	2.79
B34	2.83

biological target: T2, Bicoid DBD-GST (Bcd); test: EMSA; direct titration; HiP-FA: 33 mM phosphate pH 7.0, 90 mM NaCl, 0.01% Tween 20, 0.1 mM DTT, 0.5% agarose; conventional titration and EMSA: 20 mM Tris-acetate pH 7.0, 50 nM (sic) NaCl, 0.01% Tween-20, 0.1 mM DTT; details: protein: recombinant; tags: N-terminal GST; label: Cy3; blunt

Molecule	Kd [nM]
B35	1.8 ± 0.2

biological target: T2, Bicoid DBD-GST (Bcd); test: competitive fluorescence anisotropy (HiP-FA); HiP-FA: 33 mM phosphate pH 7.0, 90 mM NaCl, 0.01% Tween 20, 0.1 mM DTT, 0.5% agarose; conventional titration and EMSA: 20 mM Tris-acetate pH 7.0, 50 nM (sic) NaCl, 0.01% Tween-20, 0.1 mM DTT; details: protein: recombinant; tags: N-terminal GST; blunt

Molecule	Kd [nM]
B36	2.2

biological target: T2, Bicoid DBD-GST (Bcd); test: competitive fluorescence anisotropy (HiP-FA); mean of replicates 2.83, 2.8405; HiP-FA: 33 mM phosphate pH 7.0, 90 mM NaCl, 0.01% Tween 20, 0.1 mM DTT, 0.5% agarose; conventional titration and EMSA: 20 mM Tris-acetate pH 7.0, 50 nM (sic) NaCl, 0.01% Tween-20, 0.1 mM DTT; details: protein: recombinant; tags: N-terminal GST; blunt, G:G mismatch at position 6

Molecule	Kd [nM]
B37	2.83

biological target: T2, Bicoid DBD-GST (Bcd); test: competitive fluorescence anisotropy (HiP-FA); mean of replicates 3.766, 3.8365; HiP-FA: 33 mM phosphate pH 7.0, 90 mM NaCl, 0.01% Tween 20, 0.1 mM DTT, 0.5% agarose; conventional titration and EMSA: 20 mM Tris-acetate pH 7.0, 50 nM (sic) NaCl, 0.01% Tween-20, 0.1 mM DTT; details: protein: recombinant; tags: N-terminal GST; blunt, G:G mismatch at position 6

Molecule	Kd [nM]
B38	3.8

biological target: T2, Bicoid DBD-GST (Bcd); test: competitive fluorescence anisotropy (HiP-FA); mean of replicates 18.854, 22.285; HiP-FA: 33 mM phosphate pH 7.0, 90 mM NaCl, 0.01% Tween 20, 0.1 mM DTT, 0.5% agarose; conventional titration and EMSA: 20 mM Tris-acetate pH 7.0, 50 nM (sic) NaCl, 0.01% Tween-20, 0.1 mM DTT; details: protein: recombinant; tags: N-terminal GST; blunt, G:G mismatch at position 6

Molecule	Kd [nM]
B39	20.6

biological target: T2, Bicoid DBD-GST (Bcd); test: competitive fluorescence anisotropy (HiP-FA); mean of replicates 13.103, 12.6865; HiP-FA: 33 mM phosphate pH 7.0, 90 mM NaCl, 0.01% Tween 20, 0.1 mM DTT, 0.5% agarose; conventional titration and EMSA: 20 mM Tris-acetate pH 7.0, 50 nM (sic) NaCl, 0.01% Tween-20, 0.1 mM DTT; details: protein: recombinant; tags: N-terminal GST; blunt, G:G mismatch at position 6

Molecule	Kd [nM]
B40	12.9

biological target: T2, Bicoid DBD-GST (Bcd); test: competitive fluorescence anisotropy (HiP-FA); mean of replicates 20.981, 21.8595; HiP-FA: 33 mM phosphate pH 7.0, 90 mM NaCl, 0.01% Tween 20, 0.1 mM DTT, 0.5% agarose; conventional titration and EMSA: 20 mM Tris-acetate pH 7.0, 50 nM (sic) NaCl, 0.01% Tween-20, 0.1 mM DTT; details: protein: recombinant; tags: N-terminal GST; blunt, G:G mismatch at position 6

Molecule	Kd [nM]
B41	21.4
